Measurements published in patent US20210253636A1.
Where no end group is shown, it is not given here. The star is where a group is joined. biotin = biotin label attached through an aminohexanoic acid linker; Biotin = O=C1N[C@H]2[C@H](CS[C@H]2CCCCC(=O)*)N1; Ahx = NCCCCCC(=O)O

How the values were obtained:
[1] = biological target: peptide-binding domain of GRP78 (GRP78-PBD, amino acids 421-639) (UniProt P11021); assay: SPR (BIACORE T200), N-biotin peptide on streptavidin CM5 chip, GRP78-PBD analyte
[2] = biological target: peptide-binding domain of GRP78 (GRP78-PBD, amino acids 421-639) (UniProt P11021); assay: SPR (BIACORE T200), C-terminal biotin peptide on streptavidin CM5 chip, GRP78-PBD analyte

Sequence of peptide-binding domain of GRP78 (GRP78-PBD, amino acids 421-639) (P11021 421-639 limits assumed, form in doubt): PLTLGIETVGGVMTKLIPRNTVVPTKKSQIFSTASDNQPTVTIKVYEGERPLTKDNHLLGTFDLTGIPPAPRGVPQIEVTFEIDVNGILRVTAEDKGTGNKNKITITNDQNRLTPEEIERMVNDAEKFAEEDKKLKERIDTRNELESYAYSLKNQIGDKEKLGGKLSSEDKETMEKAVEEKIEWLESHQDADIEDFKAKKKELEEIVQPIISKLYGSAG

Row | Binder | Kd [1] [nM] | koff [1] [s⁻¹] | kon [1] [M⁻¹ s⁻¹] | Kd [2] [nM] | koff [2] [s⁻¹] | kon [2] [M⁻¹ s⁻¹]
1 | {biotin-Ahx}-GGGGSRPFLFPFLFYRPFLFPFLFY [F5P13-TR-CTP, N-terminally extended with GGGGS and N-terminally biotin-labeled] | 610 | 0.0012 | 1900 |  |  | 
2 | {biotin-Ahx}-GGGGSRPFLFPFLFY [F4P13-TR-CTP, N-terminally extended with GGGGS and N-terminally biotin-labeled] | 2100 | 0.0017 | 790 |  |  | 
3 | {biotin-Ahx}-GGGGSRLLDTNRPFLPY [P6-CTP, N-terminally extended with GGGGS and N-terminally biotin-labeled] | 1900 | 0.003 | 1500 |  |  | 
4 | {biotin-Ahx}-GGGGSRPFLPFLPY [F4P6-TR-CTP, N-terminally extended with GGGGS and N-terminally biotin-labeled] | 1200 | 0.0028 | 2300 |  |  | 
5 | {biotin-Ahx}-GGGGSRPFLPFLPYRPFLPFLPY [F5P6-TR-CTP, N-terminally extended with GGGGS and N-terminally biotin-labeled] | 1000 | 0.00091 | 890 |  |  | 
6 | RLLDTNRPFLFYGGGGSK(Biotin) [P13-CTP-cBiotin (P13-CTP extended at the C-terminus with GGGGSK, biotin on the C-terminal lysine)] |  |  |  | 2700 | 0.002 | 970
7 | {biotin-Ahx}-GGGGSRLLDTNRPFLFY [P13-CTP, N-terminally extended with GGGGS and N-terminally biotin-labeled] | 2700 | 0.0034 | 1200 |  |  | 
8 | MRPFLFPFLFYGGGGSK(Biotin) |  |  |  | 1200 | 0.00029 | 240
9 | RPFLFPFLFYGGGGSK(Biotin) |  |  |  | 660 | 0.0012 | 1800
